Results on 1 molecule are retold here after patent publication US12006343B2, “C4BP-based compounds for treating immunological diseases” (FUNDACIO INSTITUT D'INVESTIGACIO BIOMEDICA DE BELLVITGE …, priority 2017, dated 2024).

In assay [1] the test system is human monocyte-derived DCs. To be noted: negative control; Olivar et al. 2013; cited from earlier work.
For assay [2], the system named is human monocyte-derived DCs. The assay is described as follows: Immunomodulatory activity over human monocyte-derived DCs: CD83/CD86 surface expression by flow cytometry after LPS maturation. The settings on record: MoDCs pre-incubated with 5 μg/ml protein, LPS challenge; FIG. 4. In kind it is cell-based. In general terms: In flow cytometry, cells or beads pass a laser one at a time.

B1: C4BP(β+): major C4BP α7β1 plus minor C4BP α6β1 isoforms (in complex with ProS) purified from pooled human plasma; negative control (protein, UniProt P04003 49-597; P20851 18-252, looked up)
C4b-binding protein alpha …: NCGPPPTLSFAAPMDITLTETRFKTGTTLKYTCLPGYVRSHSTQTLTCNSDGEWVYNTFCIYKRCRHPGELRNGQVEIKTDLSFGSQIEFSCSEGFFLIGSTTSRCEVQDRGVGWSHPLPQCEIVKCKPPPDIRNGRHSGEENFYAYGFSVTYSCDPRFSLLGHASISCTVENETIGVWRPSPPTCEKITCRKPDVSHGEMVSGFGPIYNYKDTIVFKCQKGFVLRGSSVIHCDADSKWNPSPPACEPNSCINLPDIPHASWETYPRPTKEDVYVVGTVLRYRCHPGYKPTTDEPTTVICQKNLRWTPYQGCEALCCPEPKLNNGEITQHRKSRPANHCVYFYGDEISFSCHETSRFSAICQGDGTWSPRTPSCGDICNFPPKIAHGHYKQSSSYSFFKEEIIYECDKGYILVGQAKLSCSYSHWSAPAPQCKALCRKPELVNGRLSVDKDQYVEPENVTIQCDSGYGVVGPQSITCSGNRTWYPEVPKCEWETPEGCEQVLTGKRLMQCLPNPEDVKMALEVYKLSLEIEQLELQRDSARQSTLDKEL
C4b-binding protein beta chain: SDAEHCPELPPVDNSIFVAKEVEGQILGTYVCIKGYHLVGKKTLFCNASKEWDNTTTECRLGHCPDPVLVNGEFSSSGPVNVSDKITFMCNDHYILKGSNRSQCLEDHTWAPPFPICKSRDCDPPGNPVHGYFEGNNFTLGSTISYYCEDRYYLVGVQEQQCVDGEWSSALPVCKLIQEAPKPECEKALLAFQESKNLCEAMENFMQQLKESGMTMEELKYSLELKKAELKAKLL
modifications: in complex with protein S
notes: major C4BP α7β1 plus minor C4BP α6β1 isoforms (in complex with ProS) purified from pooled human plasma; negative control
On to B1, for which the immunomodulatory activity entry in assay [1] is recorded as “no immunomodulatory activity”. For the same molecule, the “semi-mature, anti-inflammatory phenotype conferred to LPS-matured MoDCs (immunomodulatory activity)” value in assay [2] is “inactive”.
